Patent US20150105326A1 (SEOUL NATIONAL UNIVERSITY SNU R AND D FOUNDATION, published 2015)

What was measured:
[1] = biological target: T1, EZH2 H689A mutant (catalytically inactive mutant, MT) (UniProt Q15910 1-746); test: binding of EZH2 WT or MT with RORα in cell extracts (FIG. 15)
T1 construct: also called EZH2 MT; H689A mutant (MT) of EZH2

[2] = biological target: T2, DDB1-CUL4-associated factor 1 adaptor (DCAF1) (UniProt Q9Y4B6 1-1507); test: co-immunoprecipitation, HEK-293 cells with 20 µM MG132 (FIG. 23 legend)
T2 construct: Endogenous or overexpressed in HEK-293 cells, in cell extracts; also called VprBP

[3] = biological target: T3, Enhancer of Zeste Homolog 2 lysine methyltransferase (EZH2) wild type (UniProt Q15910 1-746); test: co-immunoprecipitation of endogenous proteins, HEK-293 cells with MG132 (FIG. 3)
T3 construct: Endogenous (HEK-293) or overexpressed, in cell extracts; also called EZH2 WT

Measured: binding result

T2 sequence (Q9Y4B6 whole entry): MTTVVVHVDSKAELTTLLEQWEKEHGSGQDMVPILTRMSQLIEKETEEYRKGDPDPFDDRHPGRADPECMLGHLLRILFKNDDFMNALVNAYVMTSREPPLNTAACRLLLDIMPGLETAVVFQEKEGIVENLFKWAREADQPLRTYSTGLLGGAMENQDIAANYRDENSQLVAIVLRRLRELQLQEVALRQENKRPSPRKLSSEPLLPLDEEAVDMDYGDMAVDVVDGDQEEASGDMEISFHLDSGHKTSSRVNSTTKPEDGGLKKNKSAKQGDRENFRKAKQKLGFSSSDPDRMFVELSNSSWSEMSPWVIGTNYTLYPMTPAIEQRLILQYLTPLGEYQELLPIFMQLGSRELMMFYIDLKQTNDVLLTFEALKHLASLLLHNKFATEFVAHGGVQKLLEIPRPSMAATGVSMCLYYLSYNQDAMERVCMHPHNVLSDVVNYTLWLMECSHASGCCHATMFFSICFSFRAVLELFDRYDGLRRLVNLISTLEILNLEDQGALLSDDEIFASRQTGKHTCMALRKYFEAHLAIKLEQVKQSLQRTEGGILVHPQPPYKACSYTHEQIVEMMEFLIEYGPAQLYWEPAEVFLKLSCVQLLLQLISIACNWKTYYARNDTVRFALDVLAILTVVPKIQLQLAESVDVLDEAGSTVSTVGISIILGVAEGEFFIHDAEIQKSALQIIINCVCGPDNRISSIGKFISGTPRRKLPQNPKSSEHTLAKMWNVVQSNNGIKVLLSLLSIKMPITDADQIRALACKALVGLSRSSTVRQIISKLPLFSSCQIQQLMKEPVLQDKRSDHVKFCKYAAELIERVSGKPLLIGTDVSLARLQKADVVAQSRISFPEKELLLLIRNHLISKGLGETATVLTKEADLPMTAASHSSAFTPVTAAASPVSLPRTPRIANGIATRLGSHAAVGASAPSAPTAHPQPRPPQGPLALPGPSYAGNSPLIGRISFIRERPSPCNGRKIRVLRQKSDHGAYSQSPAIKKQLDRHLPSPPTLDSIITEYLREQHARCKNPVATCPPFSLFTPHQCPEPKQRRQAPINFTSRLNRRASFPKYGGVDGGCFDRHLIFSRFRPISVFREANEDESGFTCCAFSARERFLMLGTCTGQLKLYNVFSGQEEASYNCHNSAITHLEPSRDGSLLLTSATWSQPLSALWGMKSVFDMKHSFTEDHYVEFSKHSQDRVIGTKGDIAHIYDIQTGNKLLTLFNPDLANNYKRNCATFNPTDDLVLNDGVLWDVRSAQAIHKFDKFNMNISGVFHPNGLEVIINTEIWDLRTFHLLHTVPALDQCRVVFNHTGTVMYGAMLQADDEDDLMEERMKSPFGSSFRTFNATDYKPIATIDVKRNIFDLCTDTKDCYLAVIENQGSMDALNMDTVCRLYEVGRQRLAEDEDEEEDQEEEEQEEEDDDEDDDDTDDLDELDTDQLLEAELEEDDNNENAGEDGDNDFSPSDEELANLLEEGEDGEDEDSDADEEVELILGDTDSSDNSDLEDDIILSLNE
T3 sequence (Q15910 whole entry): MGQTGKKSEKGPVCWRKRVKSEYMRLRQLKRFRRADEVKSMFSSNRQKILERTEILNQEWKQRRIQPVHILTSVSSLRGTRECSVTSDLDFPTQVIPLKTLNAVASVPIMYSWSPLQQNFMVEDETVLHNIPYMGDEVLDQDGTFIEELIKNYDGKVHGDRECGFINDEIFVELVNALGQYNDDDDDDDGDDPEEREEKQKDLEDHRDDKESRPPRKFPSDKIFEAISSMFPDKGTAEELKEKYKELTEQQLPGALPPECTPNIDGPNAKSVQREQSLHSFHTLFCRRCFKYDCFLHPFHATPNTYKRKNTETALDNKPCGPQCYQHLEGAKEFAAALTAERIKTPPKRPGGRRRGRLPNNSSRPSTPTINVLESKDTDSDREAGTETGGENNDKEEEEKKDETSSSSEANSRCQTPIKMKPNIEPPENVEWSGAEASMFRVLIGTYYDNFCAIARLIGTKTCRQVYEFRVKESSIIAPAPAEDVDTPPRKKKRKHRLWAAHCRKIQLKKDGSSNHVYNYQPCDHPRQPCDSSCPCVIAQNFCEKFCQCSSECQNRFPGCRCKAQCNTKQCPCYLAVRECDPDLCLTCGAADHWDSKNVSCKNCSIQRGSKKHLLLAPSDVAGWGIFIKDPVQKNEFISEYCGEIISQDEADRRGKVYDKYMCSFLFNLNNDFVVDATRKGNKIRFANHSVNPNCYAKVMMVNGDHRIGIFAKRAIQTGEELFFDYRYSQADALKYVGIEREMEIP
T1 sequence (Q15910 whole entry H689A): as the sequence (Q15910 whole entry) above, with H689A counted along it

B1: retinoic acid-related orphan nuclear receptor α (RORα) wild type (receptor, UniProt P35398-2 1-523, looked up)
chain: MESAPAAPDPAASEPGSSGADAAAGSRETPLNQESARKSEPPAPVRRQSYSSTSRGISVTKKTHTSQIEIIPCKICGDKSSGIHYGVITCEGCKGFFRRSQQSNATYSCPRQKNCLIDRTSRNRCQHCRLQKCLAVGMSRDAVKFGRMSKKQRDSLYAEVQKHRMQQQQRDHQQQPGEAEPLTPTYNISANGLTELHDDLSNYIDGHTPEGSKADSAVSSFYLDIQPSPDQSGLDINGIKPEPICDYTPASGFFPYCSFTNGETSPTVSMAELEHLAQNISKSHLETCQYLREELQQITWQTFLQEEIENYQNKQREVMWQLCAIKITEAIQYVVEFAKRIDGFMELCQNDQIVLLKAGSLEVVFIRMCRAFDSQNNTVYFDGKYASPDVFKSLGCEDFISFVFEFGKSLCSMHLTEDEIALFSAFVLMSADRSWLQEKVKIEKLQQKIQLALQHVLQKNHREDGILTKLICKVSTLRALCGRHTEKLMAFKAIYPDIVRLHFPPLYKELFTSEFEPAMQIDG
modifications: K38 mono-methylated by EZH2 in cells (the fraction methylated is not stated)
notes: Endogenous protein of HEK-293 cells in some co-immunoprecipitations, 3x-Flag-tagged (3x-Flag-CMV-RORα) in others; the tag is not written as a piece; also called RORα WT; Flag-RORα
binds: all assays above
